Assay results: patent publication US20240270846A1 (published 2024)
Positions count from the first letter of the chain named.

B1: CE115HA000 H chain altered form A56L (antibody, human IgG1, kappa, L234A L235A, N297A, name in Kabat numbering)
heavy: QVQLVESGGGVVQPGRSLRLSCAASGFTFSNAWMHWVRQAPGKGLEWVAQIKAKSNNYLTYYAESVKGRFTISRDDSKNSLYLQMNSLKTEDTAVYYCRYVHYGAYYGVDAWGQGTTVTVSSASTKGPSVFPLAPSSKSTSGGTAALGCLVKDYFPEPVTVSWNSGALTSGVHTFPAVLQSSGLYSLSSVVTVPSSSLGTQTYICNVNHKPSNTKVDKKVEPKSCDKTHTCPPCPAPEAAGGPSVFLFPPKPKDTLMISRTPEVTCVVVDVSHEDPEVKFNWYVDGVEVHNAKTKPREEQYASTYRVVSVLTVLHQDWLNGKEYKCKVSNKALPAPIEKTISKAKGQPREPQVYTLPPSRCELTKNQVSLSCAVKGFYPSDIAVEWESNGQPENNYKTTPPVLDSDGSFFLVSKLTVDKSRWQQGNVFSCSVMHEALHNHYTQKSLSLSPDYKDDDDK
chain: EPKSSDKTHTCPPCPAPELLGGPSVFLFPPKPKDTLMISRTPEVTCVVVDVSHEDPEVKFNWYVDGVEVHNAKTKPREEQYNSTYRVVSVLTVLHQDWLNGKEYKCKVSNKALPAPIEKTISKAKGQPREPQVCTLPPSRDELTKNQVSLWCLVKGFYPSDIAVEWESNGQPENNYKTTPPVLDSDGSFFLYSKLTVDKSRWQQGNVFSCSVMHEALHNRYTQKSLSLSP
light: DIVMTQSPLSLPVTPGEPASISCRSSQSLVHSNRNTYLHWYQQKPGQAPRLLIYKVSNRFSGVPDRFSGSGSGTDFTLKISRVEAEDVGVYYCGQGTQVPYTFGQGTKLEIKRTVAAPSVFIFPPSDEQLKSGTASVVCLLNNFYPREAKVQWKVDNALQSGNSQESVTEQDSKDSTYSLSSTLTLSKADYEKHKVYACEVTHQGLSSPVTKSFNRGEC
notes: one-arm antibody
B2: CE115HA000 H chain altered form H35S (antibody, human IgG1, kappa, L234A L235A, N297A, name in Kabat numbering)
heavy: B1 heavy with H35S, L59A
chain: B1 chain
light: B1 light
notes: one-arm antibody
B3: CE115HA000 H chain altered form E61A (antibody, human IgG1, kappa, L234A L235A, N297A, name in Kabat numbering)
heavy: B1 heavy with L59A, E64A
chain: B1 chain
light: B1 light
notes: one-arm antibody
B4: CE115HA000 H chain altered form I51D (antibody, human IgG1, kappa, L234A L235A, N297A, name in Kabat numbering)
heavy: B1 heavy with I51D, L59A
chain: B1 chain
light: B1 light
notes: one-arm antibody
B5: CE115HA000 H chain altered form H35I (antibody, human IgG1, kappa, L234A L235A, N297A, name in Kabat numbering)
heavy: B1 heavy with H35I, L59A
chain: B1 chain
light: B1 light
notes: one-arm antibody
B6: CE115HA000 H chain altered form H35Y (antibody, human IgG1, kappa, L234A L235A, N297A, name in Kabat numbering)
heavy: B1 heavy with H35Y, L59A
chain: B1 chain
light: B1 light
notes: one-arm antibody
B7: CE115HA000 H chain altered form H35W (antibody, human IgG1, kappa, L234A L235A, N297A, name in Kabat numbering)
heavy: B1 heavy with H35W, L59A
chain: B1 chain
light: B1 light
notes: one-arm antibody
B8: CE115HA000 H chain altered form A60D (antibody, human IgG1, kappa, L234A L235A, N297A, name in Kabat numbering)
heavy: B1 heavy with L59A, A63D
chain: B1 chain
light: B1 light
notes: one-arm antibody
B9: CE115HA000 H chain altered form A56Q (antibody, human IgG1, kappa, L234A L235A, N297A, name in Kabat numbering)
heavy: B1 heavy with L59Q
chain: B1 chain
light: B1 light
notes: one-arm antibody
B10: CE115HA000 H chain altered form H35M (antibody, human IgG1, kappa, L234A L235A, N297A, name in Kabat numbering)
heavy: B1 heavy with H35M, L59A
chain: B1 chain
light: B1 light
notes: one-arm antibody
B11: CE115HA000 H chain altered form H35G (antibody, human IgG1, kappa, L234A L235A, N297A, name in Kabat numbering)
heavy: B1 heavy with H35G, L59A
chain: B1 chain
light: B1 light
notes: one-arm antibody
B12: CE115HA000 H chain altered form K52E (antibody, human IgG1, kappa, L234A L235A, N297A, name in Kabat numbering)
heavy: B1 heavy with K52E, L59A
chain: B1 chain
light: B1 light
notes: one-arm antibody
B13: CE115HA000 H chain altered form H35R (antibody, human IgG1, kappa, L234A L235A, N297A, name in Kabat numbering)
heavy: B1 heavy with H35R, L59A
chain: B1 chain
light: B1 light
notes: one-arm antibody
B14: CE115HA000 H chain altered form H35Q (antibody, human IgG1, kappa, L234A L235A, N297A, name in Kabat numbering)
heavy: B1 heavy with H35Q, L59A
chain: B1 chain
light: B1 light
notes: one-arm antibody
B15: CE115HA000 H chain altered form E61Q (antibody, human IgG1, kappa, L234A L235A, N297A, name in Kabat numbering)
heavy: B1 heavy with L59A, E64Q
chain: B1 chain
light: B1 light
notes: one-arm antibody
B16: CE115HA000 H chain altered form H35F (antibody, human IgG1, kappa, L234A L235A, N297A, name in Kabat numbering)
heavy: B1 heavy with H35F, L59A
chain: B1 chain
light: B1 light
notes: one-arm antibody
B17: CE115HA000 H chain altered form A56N (antibody, human IgG1, kappa, L234A L235A, N297A, name in Kabat numbering)
heavy: B1 heavy with L59N
chain: B1 chain
light: B1 light
notes: one-arm antibody
B18: CE115HA000 H chain altered form K43Q (antibody, human IgG1, kappa, L234A L235A, N297A, name in Kabat numbering)
heavy: B1 heavy with K43Q, L59A
chain: B1 chain
light: B1 light
notes: one-arm antibody
B19: CE115HA000 H chain altered form E61P (antibody, human IgG1, kappa, L234A L235A, N297A, name in Kabat numbering)
heavy: B1 heavy with L59A, E64P
chain: B1 chain
light: B1 light
notes: one-arm antibody
B20: CE115HA000 H chain altered form K52D (antibody, human IgG1, kappa, L234A L235A, N297A, name in Kabat numbering)
heavy: B1 heavy with K52D, L59A
chain: B1 chain
light: B1 light
notes: one-arm antibody
B21: CE115HA000 H chain altered form H35E (antibody, human IgG1, kappa, L234A L235A, N297A, name in Kabat numbering)
heavy: B1 heavy with H35E, L59A
chain: B1 chain
light: B1 light
notes: one-arm antibody
B22: CE115HA000 H chain altered form I51E (antibody, human IgG1, kappa, L234A L235A, N297A, name in Kabat numbering)
heavy: B1 heavy with I51E, L59A
chain: B1 chain
light: B1 light
notes: one-arm antibody
B23: CE115HA000 H chain altered form A56Y (antibody, human IgG1, kappa, L234A L235A, N297A, name in Kabat numbering)
heavy: B1 heavy with L59Y
chain: B1 chain
light: B1 light
notes: one-arm antibody
B24: CE115HA000 H chain altered form H35N (antibody, human IgG1, kappa, L234A L235A, N297A, name in Kabat numbering)
heavy: B1 heavy with H35N, L59A
chain: B1 chain
light: B1 light
notes: one-arm antibody
B25: CE115HA000 H chain altered form H35T (antibody, human IgG1, kappa, L234A L235A, N297A, name in Kabat numbering)
heavy: B1 heavy with H35T, L59A
chain: B1 chain
light: B1 light
notes: one-arm antibody
B26: CE115HA000 H chain altered form H35K (antibody, human IgG1, kappa, L234A L235A, N297A, name in Kabat numbering)
heavy: B1 heavy with H35K, L59A
chain: B1 chain
light: B1 light
notes: one-arm antibody
B27: CE115HA000 H chain altered form F29V (antibody, human IgG1, kappa, L234A L235A, N297A, name in Kabat numbering)
heavy: B1 heavy with F29V, L59A
chain: B1 chain
light: B1 light
notes: one-arm antibody
B28: CE115HA000 H chain altered form E61D (antibody, human IgG1, kappa, L234A L235A, N297A, name in Kabat numbering)
heavy: B1 heavy with L59A, E64D
chain: B1 chain
light: B1 light
notes: one-arm antibody
B29: CE115HA000 H chain altered form K43E (antibody, human IgG1, kappa, L234A L235A, N297A, name in Kabat numbering)
heavy: B1 heavy with K43E, L59A
chain: B1 chain
light: B1 light
notes: one-arm antibody
B30: CE115HA000 H chain altered form H35D (antibody, human IgG1, kappa, L234A L235A, N297A, name in Kabat numbering)
heavy: B1 heavy with H35D, L59A
chain: B1 chain
light: B1 light
notes: one-arm antibody
B31: CE115HA000 H chain altered form H35L (antibody, human IgG1, kappa, L234A L235A, N297A, name in Kabat numbering)
heavy: B1 heavy with H35L, L59A
chain: B1 chain
light: B1 light
notes: one-arm antibody
B32: CE115HA000 H chain altered form H35V (antibody, human IgG1, kappa, L234A L235A, N297A, name in Kabat numbering)
heavy: B1 heavy with H35V, L59A
chain: B1 chain
light: B1 light
notes: one-arm antibody
B33: CE115HA000 H chain altered form A60E (antibody, human IgG1, kappa, L234A L235A, N297A, name in Kabat numbering)
heavy: B1 heavy with L59A, A63E
chain: B1 chain
light: B1 light
notes: one-arm antibody

molecular target: T1, CD3 epsilon homodimer protein (UniProt P07766 23-126); assay: SPR Biacore T200, CD3 epsilon homodimer on chip, antibody as analyte;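 further: homodimer amine-coupled to a CM4 sensor chip, run at 25 °C in HBS-EP+ buffer, with kinetic parameters derived in Biacore T200 Evaluation Software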
T1 construct: also called CD3 (CD3 epsilon)
T1 sequence (P07766 23-126): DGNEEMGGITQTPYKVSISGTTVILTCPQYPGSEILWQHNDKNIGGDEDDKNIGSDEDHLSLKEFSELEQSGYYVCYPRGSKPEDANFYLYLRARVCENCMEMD

KD ratio (KD of CE115HA000 / KD of altered form)	Binder
0.77	B1
2.93	B2
0.94	B3
6.37	B4
7.23	B5
119000	B6
50.4	B7
0.94	B8
0.74	B9
3.98	B10
45.8	B11
19.4	B12
15400	B13
4.8	B14
0.85	B15
53.6	B16
0.84	B17

KD ratio (KD of CE115HA000 / KD of altered form)	Binder
0.89	B18
0.82	B19
166	B20
70.3	B21
0.84	B22
0.63	B23
2.88	B24
4.4	B25
14.4	B26
2.94	B27
0.9	B28
0.88	B29
69	B30
4.8	B31
28.1	B32
0.88	B33
